The values that follow come from article PMC9769368 (2022).

Common to all, as to assay: ELISA
Assay [1] concerns the target T1, AAVGo.1 virus-like particles (goat adeno-associated virus capsid, without DNA genome) (goat adeno-associated virus AAVGo.1).
T1 chain 1: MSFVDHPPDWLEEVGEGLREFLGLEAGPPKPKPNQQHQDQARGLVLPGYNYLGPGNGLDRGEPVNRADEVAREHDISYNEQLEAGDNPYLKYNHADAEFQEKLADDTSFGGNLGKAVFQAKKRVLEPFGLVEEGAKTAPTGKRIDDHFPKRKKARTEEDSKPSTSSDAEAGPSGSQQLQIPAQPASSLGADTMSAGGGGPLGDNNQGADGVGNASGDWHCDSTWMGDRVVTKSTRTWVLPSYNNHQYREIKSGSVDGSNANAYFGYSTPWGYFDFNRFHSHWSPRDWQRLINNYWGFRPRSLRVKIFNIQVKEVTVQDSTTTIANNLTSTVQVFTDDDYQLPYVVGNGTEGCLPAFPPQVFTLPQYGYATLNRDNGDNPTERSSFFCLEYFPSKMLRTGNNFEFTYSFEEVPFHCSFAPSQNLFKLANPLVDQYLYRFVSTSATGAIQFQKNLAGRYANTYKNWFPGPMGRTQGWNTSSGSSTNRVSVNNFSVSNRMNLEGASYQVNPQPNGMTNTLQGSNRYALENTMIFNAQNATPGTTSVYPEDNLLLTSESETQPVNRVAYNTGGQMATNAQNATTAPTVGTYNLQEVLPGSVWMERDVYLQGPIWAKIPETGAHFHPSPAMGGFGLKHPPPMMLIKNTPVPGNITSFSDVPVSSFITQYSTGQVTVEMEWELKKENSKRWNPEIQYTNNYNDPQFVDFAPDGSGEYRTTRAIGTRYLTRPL
T1 chain 2: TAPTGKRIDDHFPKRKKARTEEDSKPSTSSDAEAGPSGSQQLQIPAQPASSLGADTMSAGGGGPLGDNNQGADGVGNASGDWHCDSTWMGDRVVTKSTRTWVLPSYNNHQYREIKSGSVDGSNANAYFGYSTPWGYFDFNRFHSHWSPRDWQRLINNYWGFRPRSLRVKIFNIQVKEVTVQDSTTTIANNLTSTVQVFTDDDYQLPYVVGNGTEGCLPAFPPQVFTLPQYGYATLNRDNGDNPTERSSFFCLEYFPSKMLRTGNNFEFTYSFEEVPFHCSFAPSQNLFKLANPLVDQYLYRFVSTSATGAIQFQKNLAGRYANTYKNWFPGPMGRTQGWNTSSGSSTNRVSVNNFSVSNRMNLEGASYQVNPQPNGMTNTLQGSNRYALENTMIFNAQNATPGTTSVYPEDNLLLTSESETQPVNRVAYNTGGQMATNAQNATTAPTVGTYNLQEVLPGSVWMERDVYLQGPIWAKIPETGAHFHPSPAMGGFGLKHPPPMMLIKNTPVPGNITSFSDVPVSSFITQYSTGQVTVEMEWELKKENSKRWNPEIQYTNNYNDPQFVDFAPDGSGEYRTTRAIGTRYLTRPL
T1 chain 3: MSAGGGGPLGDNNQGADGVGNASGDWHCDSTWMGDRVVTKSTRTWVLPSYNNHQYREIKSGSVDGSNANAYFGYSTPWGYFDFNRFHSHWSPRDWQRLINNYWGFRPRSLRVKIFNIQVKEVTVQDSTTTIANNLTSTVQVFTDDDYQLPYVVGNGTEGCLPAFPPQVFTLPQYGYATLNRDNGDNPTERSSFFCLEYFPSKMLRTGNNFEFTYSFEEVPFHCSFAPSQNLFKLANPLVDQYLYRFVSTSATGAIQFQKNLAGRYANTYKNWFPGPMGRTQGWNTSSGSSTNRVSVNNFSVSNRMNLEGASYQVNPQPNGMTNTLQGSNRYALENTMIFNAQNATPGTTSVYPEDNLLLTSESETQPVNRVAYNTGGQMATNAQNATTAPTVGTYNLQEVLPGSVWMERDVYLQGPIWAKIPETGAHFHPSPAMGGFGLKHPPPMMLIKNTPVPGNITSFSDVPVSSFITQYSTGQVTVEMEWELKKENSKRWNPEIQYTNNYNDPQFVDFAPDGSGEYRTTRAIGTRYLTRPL

Assay [2] concerns the target AAV5 virus-like particles (adeno-associated virus 5, UniProt Q9YIJ1 2-724).
Assay [3] concerns the target AAV2 virus-like particles (adeno-associated virus 2).

B1: His6PKD1, fragment of human AAV receptor (AAVR) with PKD domain 1 (domain or fragment)
chain: SAGESVQITLPKNEVQLNAYVLQEPPKGETYTYDWQLITHPRDYSGEMEGKHSQILKLSKLTPGLYEFKVIVEGQNAHGEGYVNVTVKPE
For the molecule B1, the EC50 in assay [1] was determined as 140 nM; in assay [2], 400 nM.

B2: His6PKD12, fragment of human AAV receptor (AAVR) with PKD domains 1 and 2 (domain or fragment)
chain: MASHHHHHHVSAGESVQITLPKNEVQLNAYVLQEPPKGETYTYDWQLITHPRDYSGEMEGKHSQILKLSKLTPGLYEFKVIVEGQNAHGEGYVNVTVKPEPRKNRPPIAIVSPQFQEISLPTTSTVIDGSQSTDDDKIVQYHWEELKGPLREEKISEDTAILKLSKLVPGNYTFSLTVVDSDGATNSTTANLTVNKAVD
Regarding B2, the EC50 in assay [1] came to 120 nM; in assay [3], 340 nM; in assay [2] it was 280 nM.
